Experimental data reported in publication PMC6167325, “Outward open conformation of a Major Facilitator Superfamily multidrug/H^+ antiporter provides insights into switching mechanism” (Nature Communications, 2018).

Biological target: T1, MdfA, major facilitator superfamily (MFS) drug/H+ antiporter from Escherichia coli (Escherichia coli, UniProt P0AEY8)
T1 construct: MdfA, multidrug/H+ antiporter of E. coli; wild type; the final model of the complex holds residues Gln14-Lys400; One complex in the asymmetric unit; also called MFS-MDR transporter; source: purified
T1 sequence (P0AEY8 whole entry, the tested form may be a part): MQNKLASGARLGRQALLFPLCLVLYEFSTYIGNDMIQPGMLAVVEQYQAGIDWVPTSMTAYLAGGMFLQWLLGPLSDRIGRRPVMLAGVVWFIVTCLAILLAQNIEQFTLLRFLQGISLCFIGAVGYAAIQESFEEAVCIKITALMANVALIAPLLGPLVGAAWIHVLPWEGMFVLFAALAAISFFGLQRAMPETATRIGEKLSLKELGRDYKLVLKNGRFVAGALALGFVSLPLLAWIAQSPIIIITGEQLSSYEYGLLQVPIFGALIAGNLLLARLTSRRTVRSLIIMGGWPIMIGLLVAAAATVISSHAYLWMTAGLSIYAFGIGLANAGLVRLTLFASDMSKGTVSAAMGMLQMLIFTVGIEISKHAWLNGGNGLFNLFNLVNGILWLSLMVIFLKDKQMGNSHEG
Assay: crystal structure; co-crystals of MdfA in complex with the Fab fragment grown in the lipidic cubic phase; 3.4 Å; space group P6(1)22, one complex in the asymmetric unit; data at 100 K
Conditions: both partners purified

B1: Fab YN1074 (Fab, V domains shown)
VH: EVQLKESGPGLVAPSQSLSITCTVSGFSFSIYGLHWVRQPPGKGLEWLGMIWGGGRTDYNSALKSRLSISKDNSKSQVFLKMKSLQTDDTAMYYCARNSGYGNLAYWGQGTLVTVSA
VL: DIVMTQSPSSLSASLGERVSLTCRASQDIGYSLNWLQQEPDGTIKRLIYATSNLDSGVPKRFSGSRSGSDYSLTISSLESEDFVDYYCLQYASSPYTFGGGTKLEIK
notes: the model holds residues Leu4-Pro216; the model holds residues Asp1-Arg211; also called Fab fragment
B1: binds.
